Measured values: patent publication US20230227838A1, “ENHANCED CELL SURVIVAL AGAINST BIOTIC AND ABIOTIC STRESSES THROUGH SALICYLICK ACID-INDUCED NPR1 CONDENSATES” (priority 2020, published 2023)

Tests used:
[1] = system: CUL3; assay: Co-IP of Myc-CUL3 with HA-fused NPR1 or variants; format: binding, Arabidopsis thaliana; conditions: 1 mM SA for 5 hr
Experimental: (§1) Plant transformation: For plant transformations, the Agrobacterium tumefaciens strain GV3101 was transformed with plant binary vectors carrying the indicated transgenes. For stable expression in Arabidopsis, a floral dipping method was used. For transient expression in N benthamiana, the Agrobacterium carrying the indicated construct was cultured overnight at 28° C. in Luria-Bertani (LB) broth medium supplemented with appropriate antibiotics: spectinomycin (100 μg/ml), kanamycin (50 μg/ml), gentamycin (50 μg/ml), and rifampicin (25 μg/ml). The obtained culture was re-inoculated at 1:10 into fresh growth media with antibiotics and grown for another 4 hr. Cells were then spun down at 1,600 g for 10 min, and inoculum was prepared by resuspending cells to OD600 nm=1 in double distilled water (DDW) containing 200 μM acetosyringone (Sigma). Unless otherwise stated, for co-IP, co-localization, and BiFC assays in N. benthamiana, the proteins were co-expressed at 1:1 mixture of the relevant Agrobacteria inoculums. In all BiFC assays, the pair of YN/YC fusions was co-expressed together with free mCherry to mark the cytoplasm and nucleus, mCherry-NLS to mark the nucleus only, or mCherry-fused test proteins for co-localization analysis. The inoculum was pressure infiltrated into N. benthamiana leaves at the abaxial side using 1 ml syringe without the needle. Due to low overall levels of NPR1-GFP in transgenic plants, a transient expression assay in Arabidopsis seedlings was used to monitor NPR1-GFP subcellular localization after SA treatment (FIG. 2B). To limit the imaging time in this transient assay (2 hours), a higher baseline SA concentration had to be used. Seeds of WT (Col-0) Arabidopsis were germinated on solid half-strength Murashige and Skoog (1/2 MS) medium and grown for 4 days. Agrobacterium carrying the indicated constructs was grown overnight in LB medium supplemented with appropriate antibiotics. The obtained culture was re-inoculated at 1:10 into virulence induction medium [50.78 mM MES, 0.5% Glucose, 1.734 mM NaH2PO4, 5% of 20X-AB mix (373.9 mM NH4C1, 24.34 mM MgSO4, 40.23 mM KCl, 1.36 mM CaCl2 and 0.18 mM FeSO4·7H2O), 200 μM acetosyringone] supplemented with 25 μg/ml rifampicin and grown for another 24 hr at 28° C. to OD600=0.8 (inoculum). Seedlings were vacuum-infiltrated with the inoculum, and at 48 hpi (hours post inoculation), treatments were performed by submerging the transformed seedlings in water or SA solution at indicated concentrations for 2 hr. Entire cotyledons were sampled for microscopy.
Protein analysis and IP. Recombinant protein analysis was performed using transient expression in N. benthamiana, or stable over-expression in transgenic Arabidopsis, or expression in E. coli. Total protein extraction from plants was performed by homogenizing leaf tissue in the plant extraction buffer [50 mM Tris-HCl (pH 7.5), 150 mM NaCl, 5 mM EDTA, 0.2% Triton X-100, 0.2% Nonidet P-40] supplemented with 1 mM PMSF, 100 μM MG132, and EDTA-free protease inhibitor cocktail (Roche). For ubiquitinated protein analysis in plants, 100 μM of DUB (deubiquitinase) inhibitor (LifeSensors) and 10 mM NEM were added. Next, the lysates were cleared by centrifugation at 14,000 rpm for 15 min followed by filtering through a 0.2 μm filter. […] Pull-downs or IP experiments were done on total protein extracts by incubating protein samples in the lysis buffer overnight with indicated affinity tag or antibody conjugated to agarose or magnetic beads: GFP-trap agarose beads (Chromotek) for GFP fusions; RFP-trap agarose beads (Chromotek) for mCherry fusions; anti-HA magnetic beads (ThermoFisher) for HA tag fusions; anti-DYKDDDDK coupled magnetic agarose (ThermoFisher) for FLAG tag fusions; and glutathione magnetic agarose (ThermoFisher) for GST fusions. Unless otherwise indicated, after pull-down/IP, beads were washed 3 times and proteins were eluted by boiling in the 2×SDS sample buffer. […]

[2] = system: PR1 promoter; assay: PR1 promoter activity, dual luciferase assay; format: cell-based, Nicotiana benthamiana; conditions: 2 mM SA for 24 hr
Excerpt: PR1 promoter activity and dual luciferase assay. For promoter transactivation assays, the PR1 promoter reporter (pPR1:DUAL-LUC) was transiently co-expressed in N. benthamiana together with free HA, or HA-fused WT NPR1 or npr1 mutants (effectors) followed by treatment with SA at 1 dpi. At 2 dpi (24 hr after SA treatment), leaf discs were collected, ground in liquid nitrogen, and lysed with the PLB buffer of the Dual-Luciferase Reporter Assay System (Promega, E1910). Lysate was spun down at 12,000 g for 1 min, and 10 μl was taken for measuring FLUC and RLUC activities according to manufacturer's instructions using a Victor3 plate reader (PerkinElmer). At 25° C., substrates for FLUC and RLUC were added using the automatic injector and after 3 s shaking and 3 s delay, the signals were captured for 3 s and recorded as counts per second. To obtain the PR1 promoter activity, the ratio of F-LUC and R-LUC activities was calculated for each effector and plotted relative to that of free HA.

[3] = system: cytoplasmic condensates (SINCs); assay: Confocal imaging of localization and condensate (body) formation of GFP-fused NPR proteins and variants; format: cell-based, Nicotiana benthamiana
Experimental: as §1
Confocal laser scanning microscopy. Unless otherwise indicated, all imaging data and micrographs for single protein imaging, co-localizations, BiFC and time-lapse were obtained from the transient expression in N. benthamiana using the relevant Agrobacteria strains. All imaging was done with confocal laser scanning fluorescence microscopy using Zeiss 880 airyscan inverted confocal microscope with a 40×/1.2 water correction objective. GFP (eGFP) was excited with a 488 nm argon laser and emission was collected with a 505-530 nm band pass filter. YFP was excited with an argon laser using a 514 nm beam splitter, and emission was detected with a 520-555 nm band pass filter. mCherry was excited with a 561 nm diode laser, and emission was detected with a 575-615 nm band pass filter. When eGFP/YFP were imaged together with mCherry, a spectral GASP detector was used to collect emission from eGFP/YFP. Propidium iodide (PI) was excited with 488 nm argon laser and emission was detected with a 590-620 nm band pass filter. Time-lapse imaging was carried out on live leaf tissue samples from N. benthamiana plants transiently expressing the protein of interest. Image acquisition was done in 5 min intervals for the duration of 2 hr by scanning 30 consecutive focal planes along the Z-axis covering the entire thickness of an epidermal cell. Z-projection was done to each time frame stack before composing a final time-lapse file. […]

[4] = system: Psm ES4326/AvrRpt2-mediated cell death; assay: Cell death (conductivity/electrolyte leakage, trypan blue) after Psm ES4326/AvrRpt2 inoculation; format: in vivo, Arabidopsis thaliana; conditions: transgenic plants expressing the mutant in npr1-2 background; 1 mM SA 24 hr before inoculation
Experimental: Chemical treatment, pathogen infection and cell death assays. […] At 2 days, the bacterial colonies were scored.
Trypan blue staining. Leaves of three-week-old Arabidopsis infected with Psm ES4326/AvrRpt2 were sampled at 1 dpi, boiled in 95% ethanol until completely bleached, followed by boiling for 3 min in a 1:1 mixture of 95% ethanol and staining solution (10 ml lactic acid, 10 ml glycerol, 10 g phenol and 10 mg trypan blue, dissolved in 10 ml DDW). The leaves were then de-stained in 2.5 g/ml chloral hydrate solution and transferred to 70% glycerol for subsequent imaging.

B1: rdr3: NPR1 with cysteine cluster of RDR3 mutated (C511/521/529A) (protein)
chain: MDTTIDGFADSYEISSTSFVATDNTDSSIVYLAAEQVLTGPDVSALQLLSNSFESVFDSPDDFYSDAKLVLSDGREVSFHRCVLSARSSFFKSALAAAKKEKDSNNTAAVKLELKEIAKDYEVGFDSVVTVLAYVYSSRVRPPPKGVSECADENCCHVACRPAVDFMLEVLYLAFIFKIPELITLYQRHLLDVVDKVVIEDTLVILKLANICGKACMKLLDRCKEIIVKSNVDMVSLEKSLPEELVKEIIDRRKELGLEVPKVKKHVSNVHKALDSDDIELVKLLLKEDHTNLDDACALHFAVAYCNVKTATDLLKLDLADVNHRNPRGYTVLHVAAMRKEPQLILSLLEKGASASEATLEGRTALMIAKQATMAVECNNIPEQCKHSLKGRLCVEILEQEDKREQIPRDVPPSFAVAADELKMTLLDLENRVALAQRLFPTEAQAAMEIAEMKGTCEFIVTSLEPDRLTGTKRTSPGVKIAPFRILEEHQSRLKALSKTVELGKRFFPRASAVLDQIMNAEDLTQLAAGEDDTAEKRLQKKQRYMEIQETLKKAFSEDNLELGNSSLTDSTSSTSKSTGGKRSNRKLSHRRR
modifications: A. thaliana npr1 rdr3 protein
- CUL3 pull-down signal in co-IP [1]: little interaction
- transcriptional co-activation function (PR1 promoter transactivation) [2]: reduced transcriptional co-activation function
- SA-induced cytoplasmic body/condensate (SINC) formation ([3]; 5 mM SA for 2 hr): completely abolished the SA-induced condensation in both cytoplasm and nucleus
- nuclear accumulation (nuclear-cytoplasmic partitioning) ([3]; absence of SA, compared to WT): increased nuclear accumulation
- condensate formation in the absence of SA (constitutive) ([3]; no SA treatment / mock): no effect on protein state in untreated cells
- protection against cell death induced by Psm ES4326/AvrRpt2 (SA-mediated survival phenotype) [4]: partially compromised the protection against cell death
